Paper PMC9241633

Test system: KbvR (Klebsiella pneumoniae)
Assay: MST
Settings: MST: constant labeled KbvR, 2-fold DNA dilution series (16 samples), 30 min incubation at room temperature, measured at 30 C, 80% excitation power, medium LED …

ompK36 promoter region
Kd: 450 nM
